The Immune Epitope Database (IEDB)
pIC50, pKd: −log10 of the molar value.

Key:
HLA-B*07:02 [1] = assay: IEDB peptide-MHC binding, purified MHC/direct/fluorescence; filed as Kd, often an IC50 or EC50 that approximates it; ≥ and ≤ were set here for values at or beyond the usual limits of such assays; conditions: source organism: Mycobacterium tuberculosis C
HLA-B*35:01 [2] = assay: IEDB peptide-MHC binding, purified MHC/competitive/fluorescence; filed as Kd, often an IC50 or EC50 that approximates it; ≥ and ≤ were set here for values at or beyond the usual limits of such assays
HLA-B*51:01 [3] = assay: as above; conditions: source organism: Mycobacterium tuberculosis H37Ra
HLA-A*01:01 = assay: as above
HLA-A*03:01 [4] = assay: as above
HLA-B*07:02 [5] = assay: IEDB peptide-MHC binding, purified MHC/competitive/radioactivity; filed as Kd, often an IC50 or EC50 that approximates it; ≥ and ≤ were set here for values at or beyond the usual limits of such assays
HLA-B*35:01 [6] = assay: as above
HLA-B*51:01 [7] = assay: as above
HLA-B*53:01 = assay: as above
HLA-B*54:01 = assay: as above
HLA-A*03:01 [8] = assay: IEDB peptide-MHC binding, purified MHC/competitive/fluorescence; ≥ and ≤ were set here for values at or beyond the usual limits of such assays
HLA-A*11:01 = assay: as above; conditions: source organism: Vaccinia virus
HLA-A*24:02 = assay: as above
HLA-A*02:01 = assay: as above
HLA-B*15:01 = assay: as above
HLA-A*02:11 = assay: IEDB peptide-MHC binding, purified MHC/direct/fluorescence; filed as Kd, often an IC50 or EC50 that approximates it; ≥ and ≤ were set here for values at or beyond the usual limits of such assays; conditions: source organism: Dengue virus 2 Thailand/16681/84
HLA-A*02:12 = assay: as above; conditions: source organism: Dengue virus 2 Thailand/16681/84
HLA-C*05:01 = assay: as above; conditions: source organism: Campylobacter upsaliensis RM3195
[9] = source organism: Yersinia pestis Nepal516
[10] = source organism: SARS coronavirus Tor2
[11] = source organism: Vaccinia virus
[12] = source organism: Lymphocytic choriomeningitis virus (strain Armstrong)
[13] = source organism: Zaire ebolavirus
[14] = source organism: Sudan ebolavirus
[15] = source organism: Vaccinia virus WR
[16] = source organism: Triticum aestivum

Sequence: YPITGVKSL
- pKd (HLA-B*07:02 [1]): 7.13
- pKd (HLA-B*35:01 [2]; source organism: Mycobacterium tuberculosis H37Ra): 9.70
- pKd (HLA-B*51:01 [3]): ≤ 4.70

Sequence: MVASQLARY
- pKd (HLA-A*01:01; [9]): 5.91
- pKd (HLA-A*03:01 [4]; [9]): 6.04
- pKd (HLA-B*35:01 [2]; [9]): 9.05

Sequence: VPMEKLKAL
- pKd (HLA-B*07:02 [5]; [10]): 7.87
- pKd (HLA-B*35:01 [6]; [10]): 5.18
- pKd (HLA-B*51:01 [7]; [10]): 5.66
- pKd (HLA-B*53:01; [10]): ≤ 4.40
- pKd (HLA-B*54:01; [10]): 4.93

Sequence: GKVFAPKQK
- pIC50 (HLA-A*03:01 [8]; [11]): ≤ 3.81
- pIC50 (HLA-A*11:01): ≤ 3.92
- pIC50 (HLA-A*24:02; [11]): 4.40

Sequence: GPMMCPFLF
- pKd (HLA-B*07:02 [5]; [12]): 6.84
- pKd (HLA-B*35:01 [6]; [12]): 6.12
- pKd (HLA-B*51:01 [7]; [12]): 4.87
- pKd (HLA-B*53:01; [12]): 6.76
- pKd (HLA-B*54:01; [12]): 6.12

Sequence: TSADQQSLY
- pKd (HLA-A*01:01; source organism: Influenza A virus (A/swine/Quebec/1192/1986(H1))): 7.68

Sequence: KVHAVLTEH
- pKd (HLA-A*03:01 [4]; source organism: Brucella abortus 2308): 7.03

Sequence: TIAGVAGLI
- pIC50 (HLA-A*02:01; [13]): 5.22
- pIC50 (HLA-A*24:02; [13]): 5.59
- pIC50 (HLA-B*15:01; [13]): ≤ 3.78

Sequence: ITHPKYRKH
- pKd (HLA-A*03:01 [4]; source organism: Vibrio vulnificus YJ016): ≤ 4.70

Sequence: GPQSNQRSA
- pKd (HLA-B*07:02 [5]; [10]): 6.44
- pKd (HLA-B*35:01 [6]; [10]): 5.01
- pKd (HLA-B*51:01 [7]; [10]): 5.09
- pKd (HLA-B*53:01; [10]): ≤ 4.11
- pKd (HLA-B*54:01; [10]): 5.23

Sequence: SMVNGVVRL
- pKd (HLA-A*02:11): ≥ 9.00
- pKd (HLA-A*02:12): 7.89

Sequence: KSDDVEGRF
- pKd (HLA-C*05:01): ≥ 9.00

Sequence: QLSNTTGRL
- pIC50 (HLA-A*02:01; [14]): 5.33
- pIC50 (HLA-A*24:02; [14]): 4.52
- pIC50 (HLA-B*15:01; [14]): 4.66

Sequence: PKETFLQSP
- pIC50 (HLA-A*03:01 [8]; [14]): ≤ 3.76

Sequence: VPNITISSNA
- pKd (HLA-B*07:02 [5]; [15]): 5.38
- pKd (HLA-B*35:01 [6]; [15]): ≤ 4.16
- pKd (HLA-B*51:01 [7]; [15]): ≤ 4.16
- pKd (HLA-B*53:01; [15]): ≤ 4.16
- pKd (HLA-B*54:01; [15]): 7.78

Sequence: RPKILSMINY
- pKd (HLA-B*07:02 [5]; [15]): 5.50
- pKd (HLA-B*35:01 [6]; [15]): 5.24
- pKd (HLA-B*51:01 [7]; [15]): 5.05
- pKd (HLA-B*53:01; [15]): 5.95
- pKd (HLA-B*54:01; [15]): 5.53

Sequence: QPYPQSQPQY
- pKd (HLA-B*07:02 [5]; [16]): ≤ 4.16
- pKd (HLA-B*35:01 [6]; [16]): 6.49
- pKd (HLA-B*51:01 [7]; [16]): ≤ 4.16
- pKd (HLA-B*53:01; [16]): ≤ 4.67
- pKd (HLA-B*54:01; [16]): ≤ 4.16
